According to patent US20230212306A1 (Daiichi Sankyo, published 2023):

T1: monkey TLR7-Flag-His×6, expressed in Ba/F3 cells (monkey, UniProt Q9NYK1 27-1049 (human entry))
T1 construct: cells permeabilised with 0.1% saponin; not shown: Flag-His×6 tag added to the C-terminus
T1 chain: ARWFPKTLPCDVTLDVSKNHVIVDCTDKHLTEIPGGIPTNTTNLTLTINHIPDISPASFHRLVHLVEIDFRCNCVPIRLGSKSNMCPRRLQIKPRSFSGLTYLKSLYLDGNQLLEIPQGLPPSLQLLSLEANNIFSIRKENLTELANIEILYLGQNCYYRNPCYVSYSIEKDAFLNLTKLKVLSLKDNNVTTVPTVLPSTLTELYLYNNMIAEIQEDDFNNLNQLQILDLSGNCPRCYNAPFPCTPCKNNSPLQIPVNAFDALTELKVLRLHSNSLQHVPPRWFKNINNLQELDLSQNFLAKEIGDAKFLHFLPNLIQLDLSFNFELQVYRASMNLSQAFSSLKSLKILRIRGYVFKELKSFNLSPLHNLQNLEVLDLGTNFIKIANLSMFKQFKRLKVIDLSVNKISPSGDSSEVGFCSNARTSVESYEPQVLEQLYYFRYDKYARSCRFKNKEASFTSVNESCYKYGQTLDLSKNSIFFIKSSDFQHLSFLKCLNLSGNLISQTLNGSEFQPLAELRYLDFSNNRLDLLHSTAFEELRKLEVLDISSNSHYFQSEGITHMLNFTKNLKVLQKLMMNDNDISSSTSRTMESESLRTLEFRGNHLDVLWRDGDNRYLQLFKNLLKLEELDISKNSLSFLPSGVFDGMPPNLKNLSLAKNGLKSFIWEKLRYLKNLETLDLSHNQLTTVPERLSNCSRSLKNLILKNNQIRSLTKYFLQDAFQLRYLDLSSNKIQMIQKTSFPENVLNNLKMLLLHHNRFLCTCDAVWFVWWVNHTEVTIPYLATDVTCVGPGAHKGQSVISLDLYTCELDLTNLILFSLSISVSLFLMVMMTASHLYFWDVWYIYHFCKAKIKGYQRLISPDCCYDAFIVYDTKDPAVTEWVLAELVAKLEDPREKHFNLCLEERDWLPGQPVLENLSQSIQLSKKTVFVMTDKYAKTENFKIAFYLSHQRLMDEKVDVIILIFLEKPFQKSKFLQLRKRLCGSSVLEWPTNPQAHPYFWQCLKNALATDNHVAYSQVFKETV

T2: human TLR7-Flag-His×6 (human TLR7 variant 2), expressed in Ba/F3 cells together with human Unc93B1-HA×2 (human, UniProt Q9NYK1 27-1049)
T2 construct: Cells were permeabilised with 0.1% saponin before staining; also called hTLR7-Flag-His×6; not shown: Flag-His×6 tag added to the C-terminus
T2 sequence: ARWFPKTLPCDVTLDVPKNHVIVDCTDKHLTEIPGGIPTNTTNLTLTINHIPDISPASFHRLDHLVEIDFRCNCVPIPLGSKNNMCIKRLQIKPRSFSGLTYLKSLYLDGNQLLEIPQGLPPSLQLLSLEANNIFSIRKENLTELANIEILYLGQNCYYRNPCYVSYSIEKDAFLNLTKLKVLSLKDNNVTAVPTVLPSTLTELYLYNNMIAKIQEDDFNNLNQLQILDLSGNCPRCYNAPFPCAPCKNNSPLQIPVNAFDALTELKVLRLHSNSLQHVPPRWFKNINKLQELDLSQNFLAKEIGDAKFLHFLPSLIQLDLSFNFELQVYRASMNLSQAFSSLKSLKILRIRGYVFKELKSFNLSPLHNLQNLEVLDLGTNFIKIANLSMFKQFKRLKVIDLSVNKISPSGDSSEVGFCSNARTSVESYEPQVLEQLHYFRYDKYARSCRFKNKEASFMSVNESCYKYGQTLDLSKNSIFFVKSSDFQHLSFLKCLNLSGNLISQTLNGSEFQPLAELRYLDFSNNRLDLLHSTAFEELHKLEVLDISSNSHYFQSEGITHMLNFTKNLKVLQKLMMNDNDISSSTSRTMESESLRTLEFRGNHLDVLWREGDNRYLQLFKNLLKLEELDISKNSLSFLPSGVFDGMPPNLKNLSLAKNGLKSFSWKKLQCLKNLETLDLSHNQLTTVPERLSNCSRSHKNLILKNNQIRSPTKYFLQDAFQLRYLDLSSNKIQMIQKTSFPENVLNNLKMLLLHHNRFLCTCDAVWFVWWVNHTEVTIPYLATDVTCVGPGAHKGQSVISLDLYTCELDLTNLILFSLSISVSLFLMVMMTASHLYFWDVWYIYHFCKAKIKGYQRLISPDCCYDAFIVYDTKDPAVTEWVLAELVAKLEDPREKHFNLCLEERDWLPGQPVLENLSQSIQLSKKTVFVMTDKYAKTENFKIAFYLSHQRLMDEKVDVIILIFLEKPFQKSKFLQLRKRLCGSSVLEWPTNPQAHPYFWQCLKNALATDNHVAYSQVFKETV


Experiments:
[1] = target: T1, monkey TLR7-Flag-His×6, expressed in …; test: flow cytometry (MFI) on saponin-permeabilised Ba/F3 cells expressing monkey TLR7-Flag-His×6
Description: (§1) The Ba/F3 cell line expressing human TLR7-Flag-His×6/human Unc93B1-HA×2 established above in 1)-1-1, the Ba/F3 cell line expressing mouse TLR7-Flag-His×6 established above in 2)-1-1, the Ba/F3 cell line expressing rat TLR7-Flag-His×6×2 established above in 2)-1-2, and the Ba/F3 cell line expressing monkey TLR7-Flag-His×6 established above in 2)-1-3 were subjected to membrane permeation with 0.1% Saponin and stained using AT01 antibody, NB7 antibody, and FAN2 antibody, and a secondary antibody, Goat anti-mouse IgG (H+L)-PE (eBioscience). The binding selectivity of each antibody was evaluated by comparing the average fluorescence intensity (MFI) based on flow cytometry analysis.

[2] = target: T2, human TLR7-Flag-His×6 (human TLR7 …); test: flow cytometry (MFI) on saponin-permeabilised Ba/F3 cells expressing human TLR7-Flag-His×6/human Unc93B1-HA×2
Description: as §1

Binder | binding result [1] | binding result [2]
FAN2 antibody (antibody, IgG1, V domains shown, also called mouse anti-human TLR7 antibody (FAN2)) VH: QVQLKESGPGLVAPSQSLSITCTVSGFSLTGYGVNWVRQPPGKGLEWLGMIWGDGSTDYNSALKSRLSIRKDNSKSQVFLKMNSLQTDDTARYYCARDKGYDGYYYAMDYWGQGTSVTVSS VL: DIQMTQSPASLSASVGETVTITCRASENIYSYLAWYQQKQGKSPQLLVYDAKTLAEGVPSRFSGSGSGTQFSLKINSLQPEDFGSYYCQHHYGIPYTFGGGTKLEIK | binds | binds
NB7 antibody (antibody, IgG1, V domains shown, also called mouse anti-human TLR7 antibody (NB7)) VH: DVQLQESGPGLVKPSQSLSLTCTVTGYSITSDYAWNWIRQFPGNKLEWMGHISYRGNTNYNPSLKSRISITRDTSKNQFFLQLNSVTTEDTATYYCASWNYYGYVDYAMDYWGQGTSVTVSS VL: DIQMTQTPSSLSASLGDRVTISCRASQDISNYLNWYQQKPDGTVKLLIYYTSRLHSGVPSRFSGSGSGTDYSLTINNLEQEDIATYFCQQGDTFPTFGGGTKLEIK | binds | binds
AT01 antibody (antibody, IgG1, V domains shown, also called mouse anti-human TLR7 antibody (AT01)) VH: QVQLQQPGAELVKPGASVNLSCKASGYTFTNNWLHWVKQRPGRGLEWIGDIYPSNGRTNYNEQFKTKATLTVDKSSSTAYMQLSSLTSEDSAVYFCARERGYFDYWGQGTALTVSS VL: DIQMTQSPSSLSTSLGGKVTITCKASQDINKYIAWYQHKPGKGPRLLIHYTSTLQPGIPSRFSGSGSGRDYSFSISNLEPEDIATYYCLQYDYLLTFGAGTKLELK | binds | binds
